Experimental data as given in paper PMC9437119 (The Journal of Cell Biology, 2022).
Where a chain is given by its changes, count along the chain named. Numbers in names are those of the source. Where “and” joins values, the source holds several entries; their conditions need not be identical. Identical values can stand only once.

B1: myc-tagged human Mid51 (WT) (natural protein, UniProt Q9NQG6 1-463, looked up)
chain: MAGAGERKGKKDDNGIGTAIDFVLSNARLVLGVGGAAMLGIATLAVKRMYDRAISAPTSPTRLSHSGKRSWEEPNWMGSPRLLNRDMKTGLSRSLQTLPTDSSTFDTDTFCPPRPKPVARKGQVDLKKSRLRMSLQEKLLTYYRNRAAIPAGEQARAKQAAVDICAELRSFLRAKLPDMPLRDMYLSGSLYDDLQVVTADHIQLIVPLVLEQNLWSCIPGEDTIMNVPGFFLVRRENPEYFPRGSSYWDRCVVGGYLSPKTVADTFEKVVAGSINWPAIGSLLDYVIRPAPPPEALTLEVQYERDKHLFIDFLPSVTLGDTVLVAKPHRLAQYDNLWRLSLRPAETARLRALDQADSGCRSLCLKILKAICKSTPALGHLTASQLTNVILHLAQEEADWSPDMLADRFLQALRGLISYLEAGVLPSALNPKVNLFAELTPEEIDELGYTLYCSLSEPEVLLQT
notes: Mid51 (MIEF1), human, outer mitochondrial membrane protein; plasmid generated using VectorBuilder; Seen as monomer, dimer, tetramer and HMW species on the IP immunoblot; also called MIEF1; WT Mid51; source: HeLa cells, transfected for 24 h, in lysate
B2: myc-tagged human Mid51(Y240N) (natural protein, UniProt Q9NQG6 1-463, looked up)
chain: B1 chain with Y240N
notes: Mid51 (MIEF1), human, variant Y240N linked to dominant optic atrophy; plasmid generated using VectorBuilder; source: HeLa cells, transfected for 24 h, in lysate

Target: the molecule itself
Assay: SDS-resistant oligomers on SDS-PAGE immunoblot of the immunoprecipitate; anti-myc immunoprecipitate of the Mid51/Fis1 complex from HeLa lysate heated 20 min at 55°C, 4-20% Tris-Glycine SDS-PAGE; SDS-resistant complexes detected with anti-myc (Mid51 species) or anti-Flag (Fis1 species); species normalized to monomer

| Protein | stoichiometry N |
| --- | --- |
| B1 | 2 and 4 |
| B2 | 2 and 4 |
